Substitutions are numbered along the chain they refer to.
B1: R49KV/EKL: ICAM-1 substitution mutant, R49KV to EKL (protein, UniProt P05362 28-532, looked up, variant R49E V51L)
Intercellular adhesion …: QTSVSPSKVILPRGGSVLVTCSTSCDQPKLLGIETPLPKKELLLPGNNEKLYELSNVQEDSQPMCYSNCPDGQSTAKTFLTVYWTPERVELAPLPSWQPVGKNLTLRCQVEGGAPRANLTVVLLRGEKELKREPAVGEPAEVTTTVLVRRDHHGANFSCRTELDLRPQGLELFENTSAPYQLQTFVLPATPPQLVSPRVLEVDTQGTVVCSLDGLFPVSEAQVHLALGDQRLNPTVTYGNDSFSAKASVSVTAEDEGTQRLTCAVILGNQSQETLQTVTIYSFPAPNVILTKPEVSEGTEVTVKCEAHPRAKVTLNGVPAQPLGPRAQLLLKATPEDNGRSFSCSATLEVAGQLIHKNQTRELRVLYGPRLDERDCPGNWTWPENSQQTPMCQAWGNPLPELKCLKDGTFPLPIGESVTVTRDLEGTYLCRARSTQGEVTRKVTVNVLSPRYEIVIITVVAAAVIMGTAGLSTYLYNRQRKIKKYRLQQAQKGTPMKPNTQATPP
B2: Q62PM/API (protein, UniProt P05362 28-532, looked up, variant Q62A M64I)
Intercellular adhesion …: B1 Intercellular adhesion … with E49R, L51V, Q62A, M64I
B3: D213GL/HGV (protein, UniProt P05362 28-532, looked up, variant D213H L215V)
Intercellular adhesion …: B1 Intercellular adhesion … with E49R, L51V, D213H, L215V
B4: Q58EDS/AKDI (protein, UniProt P05362 28-532, looked up, variant Q58A E59K S61I)
Intercellular adhesion …: B1 Intercellular adhesion … with E49R, L51V, Q58A, E59K, S61I
B5: R166PQ/EPA (protein, UniProt P05362 28-532, looked up, variant R166E Q168A)
Intercellular adhesion …: B1 Intercellular adhesion … with E49R, L51V, R166E, Q168A
B6: N175TSA/QTLG (protein, UniProt P05362 28-532, looked up, variant N175Q S177L A178G)
Intercellular adhesion …: B1 Intercellular adhesion … with E49R, L51V, N175Q, S177L, A178G
B7: G46NN/ASI: ICAM-1 substitution mutant, G46NN to ASI (protein, UniProt P05362 28-532, looked up, variant G46A N47S N48I)
Intercellular adhesion …: B1 Intercellular adhesion … with G46A, N47S, N48I, E49R, L51V
B8: S3VS/AGL (protein, UniProt P05362 28-532, looked up, variant S3A V4G S5L)
Intercellular adhesion …: B1 Intercellular adhesion … with S3A, V4G, S5L, E49R, L51V
B9: E111GGA/KAGS (protein, UniProt P05362 28-532, looked up, variant E111K G112A A114S)
Intercellular adhesion …: B1 Intercellular adhesion … with E49R, L51V, E111K, G112A, A114S
B10: D203TQ/TAD (protein, UniProt P05362 28-532, looked up, variant D203T T204A Q205D)
Intercellular adhesion …: B1 Intercellular adhesion … with E49R, L51V, D203T, T204A, Q205D
B11: H152HGA/EEGS (protein, UniProt P05362 28-532, looked up, variant H152E H153E A155S)
Intercellular adhesion …: B1 Intercellular adhesion … with E49R, L51V, H152E, H153E, A155S
B12: N240DS/KNA (protein, UniProt P05362 28-532, looked up, variant N240K D241N S242A)
Intercellular adhesion …: B1 Intercellular adhesion … with E49R, L51V, N240K, D241N, S242A
B13: R149RD/EEG (protein, UniProt P05362 28-532, looked up, variant R149E R150E D151G)
Intercellular adhesion …: B1 Intercellular adhesion … with E49R, L51V, R149E, R150E, D151G
B14: D71GQS/NGEL (protein, UniProt P05362 28-532, looked up, variant D71N Q73E S74L)
Intercellular adhesion …: B1 Intercellular adhesion … with E49R, L51V, D71N, Q73E, S74L
B15: E254DE/KEK (protein, UniProt P05362 28-532, looked up, variant E254K D255E E256K)
Intercellular adhesion …: B1 Intercellular adhesion … with E49R, L51V, E254K, D255E, E256K
B16: D229QR/HLE (protein, UniProt P05362 28-532, looked up, variant D229H Q230L R231E)
Intercellular adhesion …: B1 Intercellular adhesion … with E49R, L51V, D229H, Q230L, R231E
B17: D71/N: ICAM-1 substitution mutant, D71 to N (protein, UniProt P05362 28-532, looked up, variant D71N)
Intercellular adhesion …: B1 Intercellular adhesion … with E49R, L51V, D71N
B18: V136GE/GVK (protein, UniProt P05362 28-532, looked up, variant V136G G137V E138K)
Intercellular adhesion …: B1 Intercellular adhesion … with E49R, L51V, V136G, G137V, E138K
B19: rIL-1 alpha: recombinant IL-1 alpha (protein, UniProt P01583 113-271, looked up)
Interleukin-1 alpha: SAPFSFLSNVKYNFMRIIKYEFILNDALNQSIIRANDQYLTAAALHNLDEAVKFDMGAYKSSKDDAKITVILRISKTQLYVTAQDEDQPVLLKEMPEIPKTITGSETNLLFFWETHGTKNYFTSVAHPNLFIATKQDYWVCLAGGPPSITDFQILENQA

How the values were obtained:
[1] = target: T1, LFA-1 (Homo sapiens, UniProt P05107+P20701); experiment: Adherence of COS cells expressing ICAM-1 or ICAM-1 mutants to plastic-bound purified LFA-1; format: cell-based; conditions: COS cells expressing ICAM-1 mutant adhering to LFA-1 coated plastic; normalized for percent of cells expressing mutant and for wild type binding; mean
T1 construct: endogenous in cells

[2] = system: HRV14; experiment: Binding of [^35S]-Met labeled HRV14 to COS cells expressing ICAM-1 mutants; format: cell-based, human rhinovirus 14; conditions: for HRV Binding %: 35S met-labeled HRV14 binding to COS cells expressing ICAM-1 mutant, normalized for percent of cells expressing mutant and for wild type binding, mean; for decrease in HRV14 binding: COS cells expressing the mutant, relative to wild type
[3] = system: CL203 mAb; experiment: Indirect immunofluorescence flow cytofluorometry: mAb CL203 binding to COS cells expressing ICAM-1 mutants (SLFI, % WT); format: cell-based; conditions: SLFI of CL203 for mutant normalized to wild type CL203 SLFI; level of expression
How it was run: (§1)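 Transfected COS cells expressing ICAM-1 point mutants were stained by indirect immunofluorescence and analysed by flow cytometry. Specific linear fluorescence intensity of CL203 is expressed relative to wild-type CL203; RR1/1, R6.5 and LB-2 SLFI are expressed relative to CL203 SLFI of the same mutant.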

[4] = system: RR1/1 mAb; experiment: Indirect immunofluorescence flow cytofluorometry: mAb RR1/1 binding to COS cells expressing ICAM-1 mutants (SLFI, % CL203); format: cell-based; conditions: SLFI normalized to CL203 SLFI of the mutant
How it was run: as §1

[5] = system: R6.5 mAb; experiment: Indirect immunofluorescence flow cytofluorometry: mAb R6.5 binding to COS cells expressing ICAM-1 mutants (SLFI, % CL203); format: cell-based; conditions: SLFI normalized to CL203 SLFI of the mutant
How it was run: as §1

[6] = system: LB-2 mAb; experiment: Indirect immunofluorescence flow cytofluorometry: mAb LB-2 binding to COS cells expressing ICAM-1 mutants (SLFI, % CL203); format: cell-based; conditions: SLFI normalized to CL203 SLFI of the mutant
How it was run: as §1

[7] = system: ICAM-1 expression on human umbilical vein endothelial cells (HUVEC); experiment: Radioimmune assay of ICAM-1 expression with ^125I RR1/1, HUVEC; format: cell-based; conditions: 16 hr
Description: In order to measure ICAM-1 expression, a radioimmune assay was developed. In this assay, purified RR1/1 was iodinated using iodogen to a specific activity of 10 μCi/μg. Endothelial cells were grown in 96 well plates and treated as described for each experiment. The plates were cooled at 4° C. by placing in a cold room for 0.5-1 hr, not immediately on ice. The monolayers were washed 3× with cold complete media and then incubated 30 m at 4° C. with ^125I RR1/1. The monolayers were then washed 3× with complete media. The bound 125, was released using 0.1 N NaOH and counted. The specific activity of the ^125I RR1/1 was adjusted using unlabeled RR1/1 to obtain a linear signal over the range of antigen densities encountered in this study. Non-specific binding was determined in the presence of a thousand fold excess of unlabeled RR1/1 and was subtracted from total binding to yield the specific binding.
Upregulation of ICAM-1 expression on HVEC and HSVEC-HUVEC or HSVEC were seeded into 96 well plates at 1:3 from a confluent monolayer and allowed to grow to confluence. Cells were then treated with the indicated materials or media for 16 hr and the RIA done as in methods. All points were done in quadruplicate.

T1 sequence (P20701 26-1170): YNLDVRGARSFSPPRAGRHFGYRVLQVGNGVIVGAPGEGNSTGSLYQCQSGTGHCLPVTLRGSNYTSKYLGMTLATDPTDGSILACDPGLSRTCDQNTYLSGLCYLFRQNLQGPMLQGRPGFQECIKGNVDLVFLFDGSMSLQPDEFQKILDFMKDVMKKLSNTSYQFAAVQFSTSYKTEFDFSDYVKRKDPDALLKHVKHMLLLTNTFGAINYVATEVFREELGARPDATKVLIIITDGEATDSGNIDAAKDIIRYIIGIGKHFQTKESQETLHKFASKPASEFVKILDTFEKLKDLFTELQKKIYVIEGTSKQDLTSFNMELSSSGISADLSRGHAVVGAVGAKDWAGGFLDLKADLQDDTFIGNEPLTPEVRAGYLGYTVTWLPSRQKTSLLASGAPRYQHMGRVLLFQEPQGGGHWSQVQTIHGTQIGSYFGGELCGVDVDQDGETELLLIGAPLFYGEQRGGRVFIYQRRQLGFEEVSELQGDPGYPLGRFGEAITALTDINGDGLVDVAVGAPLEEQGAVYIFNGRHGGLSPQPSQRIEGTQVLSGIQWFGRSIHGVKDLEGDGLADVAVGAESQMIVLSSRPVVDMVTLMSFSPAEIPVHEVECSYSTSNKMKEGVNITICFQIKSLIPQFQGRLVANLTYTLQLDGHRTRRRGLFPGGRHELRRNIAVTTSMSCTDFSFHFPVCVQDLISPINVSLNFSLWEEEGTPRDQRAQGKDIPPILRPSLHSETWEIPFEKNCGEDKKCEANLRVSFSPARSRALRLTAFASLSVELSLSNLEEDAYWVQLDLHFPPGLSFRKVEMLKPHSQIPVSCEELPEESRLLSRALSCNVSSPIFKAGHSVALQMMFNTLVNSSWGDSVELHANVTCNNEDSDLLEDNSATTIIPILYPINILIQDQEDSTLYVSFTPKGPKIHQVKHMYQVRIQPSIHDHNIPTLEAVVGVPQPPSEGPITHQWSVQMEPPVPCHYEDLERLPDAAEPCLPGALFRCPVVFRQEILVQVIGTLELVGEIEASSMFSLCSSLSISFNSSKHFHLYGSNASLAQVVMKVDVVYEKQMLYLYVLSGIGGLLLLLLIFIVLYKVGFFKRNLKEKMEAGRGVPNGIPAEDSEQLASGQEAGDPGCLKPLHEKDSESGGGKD
T1 sequence (P05107 23-769): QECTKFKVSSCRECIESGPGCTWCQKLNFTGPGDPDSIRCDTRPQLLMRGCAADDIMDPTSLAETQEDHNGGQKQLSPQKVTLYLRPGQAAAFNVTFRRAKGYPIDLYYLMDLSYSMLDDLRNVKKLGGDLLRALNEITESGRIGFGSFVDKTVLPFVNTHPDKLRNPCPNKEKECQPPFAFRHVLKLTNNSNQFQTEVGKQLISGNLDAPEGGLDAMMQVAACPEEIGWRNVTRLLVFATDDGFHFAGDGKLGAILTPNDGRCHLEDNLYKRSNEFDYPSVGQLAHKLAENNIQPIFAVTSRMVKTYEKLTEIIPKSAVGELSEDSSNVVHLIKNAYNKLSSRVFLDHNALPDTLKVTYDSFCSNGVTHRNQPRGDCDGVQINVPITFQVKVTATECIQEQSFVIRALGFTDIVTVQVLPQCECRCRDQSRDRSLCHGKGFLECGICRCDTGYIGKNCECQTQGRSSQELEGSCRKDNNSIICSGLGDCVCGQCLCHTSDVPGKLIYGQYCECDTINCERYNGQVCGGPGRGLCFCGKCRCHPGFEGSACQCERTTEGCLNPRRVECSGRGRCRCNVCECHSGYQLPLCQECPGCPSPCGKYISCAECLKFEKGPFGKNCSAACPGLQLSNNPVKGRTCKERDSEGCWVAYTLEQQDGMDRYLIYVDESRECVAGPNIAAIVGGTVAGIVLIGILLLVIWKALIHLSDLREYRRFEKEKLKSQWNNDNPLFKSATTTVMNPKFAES

Row | Molecule | LFA-1 Binding % [1] | HRV Binding % [2] | decrease in HRV14 binding [2] | Cl203 % WT (SLFI) [3] | SLFI (% CL203) RR/1 [4] | SLFI (% CL203) R6.5 [5] | SLFI (% CL203) LB-2 [6] | ^125I Specifically bound (CPM), HUVEC ([7]; rIL-1 beta 100 ng/ml, rIL-1 alpha 50 ng/ml, rTNF alpha 50 ng/ml, LPS 10 μg/ml, rIFN gamma 10 ng/ml, polymyxin B 10 μg/ml, control 603 ± 11) | fold of control ICAM-1 expression, HUVEC ([7]; same concentrations as CPM)
1 | B1 | 123% | 49% | two-fold | 233 % WT | 103 % CL203 | 97 % CL203 | 52 % CL203 |  | 
2 | B2 | 104% | 182% |  | 200 % WT | 59 % CL203 | 81 % CL203 | 73 % CL203 |  | 
3 | B3 | 90% | 99% |  | 128 % WT | 231 % CL203 | 175 % CL203 | 107 % CL203 |  | 
4 | B4 | 3% | 0% |  | 98 % WT | 10 % CL203 | 22 % CL203 | 7 % CL203 |  | 
5 | B5 | 75% | 25% |  | 94 % WT | 100 % CL203 | 109 % CL203 | 64 % CL203 |  | 
6 | B6 | 26% | 40% |  | 75 % WT | 19 % CL203 | 50 % CL203 | 44 % CL203 |  | 
7 | B7 | 49% | 9% | ten-fold | 151 % WT | 140 % CL203 | 107 % CL203 | 113 % CL203 |  | 
8 | B8 | 18% | 61% |  | 121 % WT | 5 % CL203 | 31 % CL203 | 9 % CL203 |  | 
9 | B9 | 103% | 162% |  | 122 % WT | 81 % CL203 | 0 % CL203 | 89 % CL203 |  | 
10 | B10 | 91% | 111% |  | 125 % WT | 178 % CL203 | 116 % CL203 | 86 % CL203 |  | 
11 | B11 | 85% | 82% |  | 94 % WT | 103 % CL203 | 94 % CL203 | 112 % CL203 |  | 
12 | B12 | 147% | 82% |  | 142 % WT | 113 % CL203 | 125 % CL203 | 132 % CL203 |  | 
13 | B13 | 81% | 139% |  | 159 % WT | 166 % CL203 | 189 % CL203 | 166 % CL203 |  | 
14 | B14 | 1% | 21% |  | 161 % WT | 0 % CL203 | 48 % CL203 | 26 % CL203 |  | 
15 | B15 | 122% | 99% |  | 180 % WT | 178 % CL203 | 129 % CL203 | 81 % CL203 |  | 
16 | B16 | 90% | 106% |  | 210 % WT | 94 % CL203 | 92 % CL203 | 100 % CL203 |  | 
17 | B17 | 79% | 62% | two-fold | 109 % WT | 44 % CL203 | 94 % CL203 | 83 % CL203 |  | 
18 | B18 | 92% | 117% |  | 171 % WT | 220 % CL203 | 172 % CL203 | 138 % CL203 |  | 
19 | B19 |  |  |  |  |  |  |  | 9910 ± 538 CPM | 16x

From patent publication US7354588B1, “Functional derivatives of ICAM-1 with altered ability to bind LFA-1 or HRV” (Dana Farber Cancer Institute, priority 1987, dated 2008)
